Results on one molecule are retold here after patent publication US20170233490A1 (Hoffmann-La Roche, published 2017).

Assay [1] has as its target T1, TtSlyDcas.
T1 construct: scaffold without hairpin insert, negative control
T1 chain: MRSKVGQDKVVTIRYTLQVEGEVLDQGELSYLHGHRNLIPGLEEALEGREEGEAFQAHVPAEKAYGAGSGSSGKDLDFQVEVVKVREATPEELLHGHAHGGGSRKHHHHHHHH
Briefly: ELISA, coated antigen. As for the experimental part:
(§1) For the ELISA the screening an antigen down format was used. […] Hybridoma Supernatant was added to the plates and incubated for 1 h at room temperature. Bound antibody was detected with a HRP-labeled F(ab′)₂ goat anti-mouse Fcγ (Dianova) and ABTS (Roche) was used as a HRP-substrate.
(§2) As negative controls the scaffold proteins TtSlyDcas and TgSlyDΔIF were used.
In general terms: In an ELISA, binding on a coated surface is turned into a signal by an enzyme label.

The target in assay [2] is T2, TtSlyDcys-Her3.
T2 chain: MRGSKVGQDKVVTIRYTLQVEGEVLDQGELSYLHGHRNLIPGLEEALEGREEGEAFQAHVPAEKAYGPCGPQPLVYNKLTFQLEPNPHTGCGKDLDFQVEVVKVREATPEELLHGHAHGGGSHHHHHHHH
Briefly: ELISA, coated antigen. As to the method:
as §1, §2

For assay [3], the target named is T3, TgSlyDΔIF.
T3 construct: scaffold without hairpin insert, negative control
T3 chain: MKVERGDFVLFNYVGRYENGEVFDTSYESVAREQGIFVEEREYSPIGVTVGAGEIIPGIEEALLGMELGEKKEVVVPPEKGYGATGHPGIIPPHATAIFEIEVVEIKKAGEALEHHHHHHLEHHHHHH
Briefly: ELISA, coated antigen. As to the method:
as §1, §2

In assay [4] the target is T4, TtSlyDcas-Her3.
T4 chain: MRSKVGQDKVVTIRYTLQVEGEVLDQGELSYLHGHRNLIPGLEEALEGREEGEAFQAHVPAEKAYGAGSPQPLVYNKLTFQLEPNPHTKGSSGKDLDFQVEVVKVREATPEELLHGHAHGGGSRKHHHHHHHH
Briefly: ELISA, coated antigen. As for the experimental part:
as §1, §2

For assay [5], the target named is T5, human HER2 Extracellular Domain (ECD) (human, UniProt P04626 23-652).
T5 construct: human recombinant, 69.6 kDa; also called Her2 ECD; HER2_ECD
Briefly: ELISA, coated antigen. As to the method:
as §1, §2

For assay [6], the target named is T6, human HER1 Extracellular Domain (ECD) (human, UniProt P00533 25-645).
T6 construct: also called Her1 ECD; HER1-ECD
In words: ELISA, coated antigen. As for the experimental part: as §1, §2

Assay [7] has as its target T7, human HER3 Extracellular Domain (ECD) (human, UniProt P21860 20-643).
T7 construct: human recombinant, 68 kDa; 'closed' conformation without ligand; also called Her3 ECD; Her-3 ECD
Briefly: ELISA, coated antigen. As to the method:
as §1, §2

Assay [8] concerns the target T8, TgSlyDser-Her3.
T8 chain: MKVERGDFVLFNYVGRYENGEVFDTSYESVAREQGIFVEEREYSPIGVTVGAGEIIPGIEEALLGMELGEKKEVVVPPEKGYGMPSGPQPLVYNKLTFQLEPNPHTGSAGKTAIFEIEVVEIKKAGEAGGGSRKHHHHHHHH
Briefly: ELISA, coated antigen. As to the method: as §1, §2

Assay [9] addresses T9, TgSlyDcys-Her3.
T9 chain: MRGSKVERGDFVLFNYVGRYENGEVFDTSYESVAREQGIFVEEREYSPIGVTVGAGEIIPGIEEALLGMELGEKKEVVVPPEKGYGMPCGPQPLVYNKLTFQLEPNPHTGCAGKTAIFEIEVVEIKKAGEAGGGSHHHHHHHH
Briefly: ELISA, coated antigen. As to the method: as §1, §2

Assay [10] addresses T10, TtSlyD-FKBP-Her3.
T10 construct: N-terminal Met present or not; also called thermo SlyD-Her3; ttSlyD-Her3
T10 chain: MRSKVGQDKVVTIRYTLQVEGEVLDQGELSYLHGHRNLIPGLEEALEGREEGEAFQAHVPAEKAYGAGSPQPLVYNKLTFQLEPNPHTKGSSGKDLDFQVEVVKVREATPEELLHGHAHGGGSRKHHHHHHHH
In words: SPR Biacore 3000, antibody captured, 25 C. As for the experimental part:
(§3) A CMS series sensor was mounted into the system and was normalized in HBS-ET buffer (10 mM HEPES pH 7.4, 150 mM NaCl, 3 mM EDTA, 0.005% w/v Tween 20) according to the manufacturer's instructions. The sample buffer was the system buffer supplemented with 1 mg/ml CMD (Carboxymethyldextran). The system operated at 25° C. 10000 RU RAM-Fcγ (relative units of Fcγ-fragment Rabbit Anti-Mouse IgG/Jackson Laboratories) were immobilized according to the manufacturer's instructions using EDC/NHS chemistry on all flow cells. The sensor was deactivated using 1M ethanolamine. Analytes in solution were injected at 100 μl/min at different concentration steps of 0 nM, 1.1 nM, 3.7 nM, 11.1 nM, 33.1 nM and 90 nM for 2 min. The dissociation was monitored for 5 min. Acidic regeneration of the sensor surface was achieved using three consecutive injections of 10 mM Glycine pH 1.7 at 30 μl/min for 60 sec. Kinetic data were evaluated according to a Langmuir fit.

Assay [11] has as its target T7, human HER3 Extracellular Domain (ECD). Briefly: SPR Biacore 3000, antibody captured, 25 C. As for the experimental part: as §3
In general terms: In SPR one partner is held on a chip, and binding of the other changes the refractive index at the surface.

Assay [12] deals with T10, TtSlyD-FKBP-Her3. Briefly: SPR Biacore 4000, antibody captured, analyte 150 nM, 25 C. As for the experimental part: Prior to their application the hybridoma culture supernatants were diluted 1:5 in instrument buffer. The diluted mixtures were injected at a flow rate of 30 μl/min for 2 min. The antibody capture level (CL) in response units was monitored. Immediately thereafter the respective antigen was injected at a flow rate of 30 μl/min for 3 min association time. Thereafter, the antibody-antigen complex dissociation signal was recorded for 5 min. The sensor was regenerated by injecting a 10 mM glycine-HCl solution (pH 1.7) for 2 min at a flow rate of 30 μl/min. The recorded signal shortly before the end of the injection of the antigen was denoted as binding late (BL) in response units. The recorded signal shortly before the end of the recording of the dissociation is denoted as stability late (SL) in response units. The dissociation rate constants were determined calculated The antibody-antigen complex stability in minutes was calculated with the following formula: ln(2)/60*kd. The Molar Ratio was calculated with the formula: MW (antibody)/MW(antigen)*BL (antigen)/CL (antibody).
Binding Late (BL) represents the response units at the end of the analyte injection. The amount of antibody captured as a ligand on the sensor surface is measured as Capture Level (CL) in response units. Together with the information of the molecular weights of the tested analytes, the antibody and the analyte in solution, the Molar Ratio can be calculated. […] Then, the Molar Ratio is also an indicator for the valence mode of analyte binding. The maximum valence can be MR=2 for an antibody binding two analytes, one with each Fab valence.

The kon is a measure of how fast the partners come together. High values mean faster complex formation, low ones slower complex formation. In general, koff refers to the rate constant with which the complex falls apart. A higher koff goes with a short-lived complex.

B1: anti-HER3/HER4 antibody M-05-74 (antibody, V domains shown)
VH: QVQLQQSGAELAKPGASVKMSCKTSGYTLTDYWIHWVKQRPGQGLEWIGYINPYTGYTESNQKFKDKATLTADKSSNTAYIQLSSLTSEDSAVYYCARPYYYGDYWGQGTTLTVSS
VL: QIVLTQSPAIMSASPGERVTITCSASSSVSYMHWFQQKPGTSPKLLIYSTSNLASGVPARFSGSGSGTSYSLTISRMEAEDAATYYCQQRSSYPFTFGSGTKLEIK
notes: murine monoclonal IgG from hybridoma (supernatant or purified), bivalent; also called M-074; M-5-74
Regarding B1, the ELISA signal in [1] worked out at 0.023; in assay [2], 3.15; in assay [3] it was 0.02; in assay [4] it was 3.13; in assay [5], 0.02; in assay [6] it was 0.018. Further, the ELISA signal was determined as 3.15 in assay [7], 3.16 in [8] and 3.16 in [9]. The “BL (Binding Late)” value in assay [10] came out at 68.1 RU; in [11], 36 RU. Moreover, the “MR (Molar Ratio)” value was determined as 1.5 in assay [10], 0.2 in assay [11] and 1.1 in [12]. The values for the kon in [10] and in [11] were 87500 M⁻¹ s⁻¹ and 20400 M⁻¹ s⁻¹, respectively. Moreover, the t/2-diss came out at 4.9 min in assay [10] and 28 min in [11]. The koff in [12] was 0.00012 s⁻¹.
